The values that follow come from publication PMC9813255, “PQBP5/NOL10 maintains and anchors the nucleolus under physiological and osmotic stress conditions” (Nature Communications, 2023).

This test deals with T1, human nucleolin (His-tag fusion protein) (human, UniProt P19338 1-710).
T1 construct: nucleolin, human, amplified from HEK293 cDNA into pET-28a; the printed primers run from the start codon to the stop codon; this is read from the printed primers; source: E. coli Rosetta 2(DE3), purified (Ni-NTA agarose)
T1 sequence (P19338 whole entry, the tested form may be a part): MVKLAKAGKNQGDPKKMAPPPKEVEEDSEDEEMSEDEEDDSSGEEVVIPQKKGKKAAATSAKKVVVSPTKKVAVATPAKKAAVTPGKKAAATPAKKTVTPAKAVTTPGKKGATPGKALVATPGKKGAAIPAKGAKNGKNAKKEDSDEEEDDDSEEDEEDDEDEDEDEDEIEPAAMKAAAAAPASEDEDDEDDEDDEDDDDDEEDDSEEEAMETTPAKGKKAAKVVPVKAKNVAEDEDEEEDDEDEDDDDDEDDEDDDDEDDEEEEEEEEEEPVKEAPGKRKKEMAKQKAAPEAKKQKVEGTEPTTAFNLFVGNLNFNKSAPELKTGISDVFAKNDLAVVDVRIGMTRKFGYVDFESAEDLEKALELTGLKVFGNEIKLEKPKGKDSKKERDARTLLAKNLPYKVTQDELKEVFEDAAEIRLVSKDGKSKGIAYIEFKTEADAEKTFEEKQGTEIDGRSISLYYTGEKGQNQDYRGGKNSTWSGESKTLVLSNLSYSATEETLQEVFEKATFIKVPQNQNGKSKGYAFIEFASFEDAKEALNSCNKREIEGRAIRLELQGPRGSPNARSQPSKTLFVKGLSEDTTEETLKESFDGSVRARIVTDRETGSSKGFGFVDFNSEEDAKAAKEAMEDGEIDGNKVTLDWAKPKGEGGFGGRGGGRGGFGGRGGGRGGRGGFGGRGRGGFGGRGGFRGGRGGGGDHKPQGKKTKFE
Nature of the test: SPR; Biacore T100, 25 °C; one protein immobilised on a CM5 chip (200 RU), analytes at 0-50 nM, 180 s at 10 μl/min; 25 mM Tris-HCl, 500 mM NaCl, 10% glycerol, 1% Triton X-100, pH 8.0. The conditions noted are these: both partners purified. (Surface plasmon resonance follows binding to a sensor surface in real time, without labels.)

B1: human fibrillarin (His-tag fusion protein) (natural protein, UniProt P22087 1-321, looked up)
chain: MKPGFSPRGGGFGGRGGFGDRGGRGGRGGFGGGRGRGGGFRGRGRGGGGGGGGGGGGGRGGGGFHSGGNRGRGRGGKRGNQSGKNVMVEPHRHEGVFICRGKEDALVTKNLVPGESVYGEKRVSISEGDDKIEYRAWNPFRSKLAAAILGGVDQIHIKPGAKVLYLGAASGTTVSHVSDIVGPDGLVYAVEFSHRSGRDLINLAKKRTNIIPVIEDARHPHKYRMLIAMVDVIFADVAQPDQTRIVALNAHTFLRNGGHFVISIKANCIDSTASAEAVFASEVKKMQQENMKPQEQLTLEPYERDHAVVVGVYRPPPKVKN
notes: fibrillarin, human, amplified from HEK293 cDNA into pET-28a; the printed primers run from the start codon to the stop codon; this is read from the printed primers; source: E. coli Rosetta 2(DE3), purified (Ni-NTA agarose)
Consider B1, for which the binding result is “binds”.
